In US20200079848A1 (Five Prime, published 2020):
Positions count from the first letter of the chain named. Numbers in names are those of the source.

B1: 21D9.IgG1.1f (antibody)
heavy: EGQLLESGGDLVQPGGSLRLSCATSGFTFSNYAMNWVRQAPGKGLEWISVISVSGGSTYYADSVKGRFTISRDNSKNTLYLQMNSLRAEDTAVYYCAKDYYYDSGSYYDSFFDYWGQGTLVTVSSASTKGPSVFPLAPSSKSTSGGTAALGCLVKDYFPEPVTVSWNSGALTSGVHTFPAVLQSSGLYSLSSVVTVPSSSLGTQTYICNVNHKPSNTKVDKRVEPKSCDKTHTCPPCPAPEAEGAPSVFLFPPKPKDTLMISRTPEVTCVVVDVSHEDPEVKFNWYVDGVEVHNAKTKPREEQYNSTYRVVSVLTVLHQDWLNGKEYKCKVSNKALPSSIEKTISKAKGQPREPQVYTLPPSREEMTKNQVSLTCLVKGFYPSDIAVEWESNGQPENNYKTTPPVLDSDGSFFLYSKLTVDKSRWQQGNVFSCSVMHEALHNHYTQKSLSLSPGK
light: not shown
notes: Parent 21D9 in IgG1.1f (L234A, L235E, G237A, A330S, P331S); also called ILT4.6.IgG1.1
B2: 10F10.1.IgG1.3 (antibody, V domains shown)
VH: QVQLVESGGGVVQPGRSLRLSCAASGFTFSSYAMHWVRQAPGKGLEWVAIISYDEYNKYYADSVKGRFTISRDNSKNTLYLQMNSLRAEDTAVYYCAREWVGIRYWGQGTLVTVSS
VL: AIQLTQSPSSLSASVGDRVTITCRASQGISSALAWYQQKPGKAPKLLIYDASSLESGVPSRFTGSGSGTDFTLTISSLQPEDFATYYCQQFNSYPITFGQGTRLEIKR
notes: Germline reversion mutant of 10F10 (light chain F36Y); heavy chain of 10F10; IgG1.3; also called 10F10.VK-F36Y.IgG1.3
B3: 10F10.3.IgG1.3 (antibody, V domains shown)
VH: B2 VH
VL: B2 VL with T63S
notes: Germline reversion mutant of 10F10 (light chain F36Y and T63S); heavy chain of 10F10; IgG1.3; also called ILT4.11.IgG1.3; 10F10.VK-F36Y/T63S.IgG1.3
B4: 21A5.a.IgG1.3 (antibody, V domains shown)
VH: QVQLVQSGAEVKKPGASVKVSCKASGYTFTDYYLHWVRQAPGQGLEWMGIFHPSGDITSSAQNFQGRVTMTRDTSTSTVYMELSSLRSEDTAVYYCARGGVLRYLDWSHAFDIWGQGTMVTVSS
VL: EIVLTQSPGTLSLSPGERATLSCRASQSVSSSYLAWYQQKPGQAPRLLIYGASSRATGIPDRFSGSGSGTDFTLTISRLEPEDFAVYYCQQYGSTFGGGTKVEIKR
notes: Germline reversion mutant of 21A5 (VH I70T, VK A3V; 21A5.1 light chain); IgG1.3; also called ILT4.9.IgG1.3; ILT4.9

How the values were obtained:
[1] = molecular target: T1, rhILT4-Fc (human, UniProt Q8N423-1 22-461); test: flow cytometry blocking assay: antibody titrated (12 points) with rhILT4-Fc fixed at 30 µg/ml; rhILT4-Fc bound to HLA-B overexpressing CHO cells read as % Positive; blocked ligand: HLA-B; the IC50 table has no unit, the concentration axis is in ug/mL
T1 construct: also called rhILT4-Fc fusion protein with a murine Fc tail; not shown: murine Fc tail
T1 sequence (Q8N423 other isoform, or with tags, fused parts or gaps): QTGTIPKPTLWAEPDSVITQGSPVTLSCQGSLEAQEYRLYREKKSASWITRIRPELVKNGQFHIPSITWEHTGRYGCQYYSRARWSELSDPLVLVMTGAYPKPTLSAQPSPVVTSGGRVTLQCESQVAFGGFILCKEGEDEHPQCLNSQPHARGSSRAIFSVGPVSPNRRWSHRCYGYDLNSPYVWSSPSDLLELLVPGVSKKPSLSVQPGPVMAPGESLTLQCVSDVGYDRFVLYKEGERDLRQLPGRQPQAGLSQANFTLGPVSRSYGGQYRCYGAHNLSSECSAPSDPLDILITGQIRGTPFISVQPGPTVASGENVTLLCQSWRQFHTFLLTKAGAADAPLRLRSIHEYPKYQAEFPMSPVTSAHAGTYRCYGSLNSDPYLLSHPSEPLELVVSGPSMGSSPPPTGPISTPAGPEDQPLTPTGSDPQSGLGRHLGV

[2] = molecular target: T1, rhILT4-Fc; test: flow cytometry blocking assay: antibody titrated (12 points) with rhILT4-Fc fixed at 30 µg/ml; rhILT4-Fc bound to HLA-A overexpressing CHO cells read as % Positive; blocked ligand: HLA-A; the IC50 table has no unit, the concentration axis is in ug/mL
[3] = molecular target: T2, human ILT4 (hILT4) expressed on cells (human, UniProt Q8N423 22-597); test: antibody titration flow cytometry binding assay on transfected cells, nonlinear regression
T2 construct: hILT4 on transfected CHO or 293T cells, or native on human monocytes and macrophages; also called LILRB2
T2 sequence (Q8N423 other isoform, or with tags, fused parts or gaps): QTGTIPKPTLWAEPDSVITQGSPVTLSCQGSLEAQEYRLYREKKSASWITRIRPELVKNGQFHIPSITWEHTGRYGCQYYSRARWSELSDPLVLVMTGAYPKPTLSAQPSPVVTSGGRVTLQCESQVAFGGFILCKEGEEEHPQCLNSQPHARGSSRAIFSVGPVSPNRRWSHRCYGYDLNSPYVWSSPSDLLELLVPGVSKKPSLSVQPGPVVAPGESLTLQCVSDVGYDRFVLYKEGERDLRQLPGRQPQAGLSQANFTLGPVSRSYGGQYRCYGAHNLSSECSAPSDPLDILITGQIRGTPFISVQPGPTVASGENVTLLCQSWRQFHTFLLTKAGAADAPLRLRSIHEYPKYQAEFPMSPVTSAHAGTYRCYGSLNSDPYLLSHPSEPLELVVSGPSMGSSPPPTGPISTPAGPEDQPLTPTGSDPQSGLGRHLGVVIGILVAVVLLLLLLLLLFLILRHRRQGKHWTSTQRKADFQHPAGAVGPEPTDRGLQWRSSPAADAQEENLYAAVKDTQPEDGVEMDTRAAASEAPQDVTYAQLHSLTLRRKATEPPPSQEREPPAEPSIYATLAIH

[4] = molecular target: T3, human LILRA4 (human, UniProt P59901 24-499); test: flow cytometry, 293T transfectants, antibody 20 µg/ml; stacked histograms, control: parental cells
T3 construct: whole, on cells; also called hLILRA4
T3 sequence (P59901 24-499): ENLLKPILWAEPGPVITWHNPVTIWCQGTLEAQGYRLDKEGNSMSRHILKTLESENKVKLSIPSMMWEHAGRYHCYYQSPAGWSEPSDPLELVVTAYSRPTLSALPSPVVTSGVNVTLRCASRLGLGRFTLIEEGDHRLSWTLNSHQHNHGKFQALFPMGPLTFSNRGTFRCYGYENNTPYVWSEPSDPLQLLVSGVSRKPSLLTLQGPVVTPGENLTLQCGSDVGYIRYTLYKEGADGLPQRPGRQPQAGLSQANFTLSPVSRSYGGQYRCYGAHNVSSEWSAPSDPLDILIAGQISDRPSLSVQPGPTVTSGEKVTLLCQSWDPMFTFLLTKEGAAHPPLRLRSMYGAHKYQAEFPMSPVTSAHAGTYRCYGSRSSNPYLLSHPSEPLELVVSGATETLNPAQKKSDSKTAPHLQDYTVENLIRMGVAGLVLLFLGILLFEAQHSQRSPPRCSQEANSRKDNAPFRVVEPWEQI
Procedure: (§1) Individual ILT family members were overexpressed in 293T cells. Each transfectant was stained with 20 μg/ml of anti-ILT4 antibodies followed by 1 μg/ml of anti-human IgG secondary mAb. Binding of the antibodies to each transfectant was measured by flow cytometry.

[5] = molecular target: T4, human LIR8 (human, UniProt O75023 24-590); test: as above
T4 construct: whole, on cells; also called hLIR8
T4 sequence (O75023 24-590): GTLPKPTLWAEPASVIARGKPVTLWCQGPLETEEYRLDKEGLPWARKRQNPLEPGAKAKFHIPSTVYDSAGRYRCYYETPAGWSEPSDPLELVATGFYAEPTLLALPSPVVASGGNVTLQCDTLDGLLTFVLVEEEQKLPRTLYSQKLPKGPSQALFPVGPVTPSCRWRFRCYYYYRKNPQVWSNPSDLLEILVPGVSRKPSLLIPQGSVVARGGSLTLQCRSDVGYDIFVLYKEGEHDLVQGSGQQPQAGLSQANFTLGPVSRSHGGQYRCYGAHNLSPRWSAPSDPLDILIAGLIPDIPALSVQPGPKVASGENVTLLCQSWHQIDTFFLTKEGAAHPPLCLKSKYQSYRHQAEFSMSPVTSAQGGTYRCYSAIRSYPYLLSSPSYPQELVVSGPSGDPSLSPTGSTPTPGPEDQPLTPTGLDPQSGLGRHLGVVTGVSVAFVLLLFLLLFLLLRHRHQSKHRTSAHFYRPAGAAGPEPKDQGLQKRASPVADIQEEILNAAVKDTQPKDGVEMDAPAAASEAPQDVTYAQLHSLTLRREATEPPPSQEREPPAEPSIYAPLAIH
Procedure: as §1

[6] = molecular target: T5, human LILRA2 (human, UniProt Q8N149 24-483); test: as above
T5 construct: whole, on cells; also called hLILRA2
T5 sequence (Q8N149 24-483): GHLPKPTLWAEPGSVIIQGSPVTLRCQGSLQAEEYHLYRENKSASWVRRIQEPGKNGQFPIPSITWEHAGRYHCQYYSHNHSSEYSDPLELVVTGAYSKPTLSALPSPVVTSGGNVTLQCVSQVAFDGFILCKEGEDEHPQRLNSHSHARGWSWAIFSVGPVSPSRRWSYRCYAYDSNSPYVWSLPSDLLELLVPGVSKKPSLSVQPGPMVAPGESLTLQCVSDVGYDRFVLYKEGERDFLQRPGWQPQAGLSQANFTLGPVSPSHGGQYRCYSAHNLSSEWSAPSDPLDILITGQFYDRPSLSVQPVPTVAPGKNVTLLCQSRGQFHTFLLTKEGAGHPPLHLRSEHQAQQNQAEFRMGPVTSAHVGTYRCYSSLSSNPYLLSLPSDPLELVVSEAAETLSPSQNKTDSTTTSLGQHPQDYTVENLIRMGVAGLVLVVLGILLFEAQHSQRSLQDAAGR
Procedure: as §1

[7] = molecular target: T6, human LILRA3 (human, UniProt Q8N6C8 24-439); test: as above
T6 construct: whole, on cells; also called hLILRA3; LIRA3
T6 sequence (Q8N6C8 24-439): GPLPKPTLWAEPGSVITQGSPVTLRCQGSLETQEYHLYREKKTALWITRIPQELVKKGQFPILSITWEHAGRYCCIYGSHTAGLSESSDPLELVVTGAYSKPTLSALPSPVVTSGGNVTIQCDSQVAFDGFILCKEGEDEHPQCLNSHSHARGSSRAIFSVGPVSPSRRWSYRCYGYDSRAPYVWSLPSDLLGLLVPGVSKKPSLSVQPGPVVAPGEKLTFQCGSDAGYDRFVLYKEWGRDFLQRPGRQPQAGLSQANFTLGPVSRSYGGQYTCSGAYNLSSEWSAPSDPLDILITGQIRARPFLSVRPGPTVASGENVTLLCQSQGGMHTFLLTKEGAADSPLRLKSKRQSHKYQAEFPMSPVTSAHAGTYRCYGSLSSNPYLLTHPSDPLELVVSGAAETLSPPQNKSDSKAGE
Procedure: as §1

[8] = molecular target: T7, human ILT5 (human, UniProt O75022 24-631); test: as above
T7 construct: whole, on cells; also called hILT5; LILRB3
Procedure: as §1

[9] = molecular target: T8, human LILRA6 (human, UniProt Q6PI73 24-481); test: as above
T8 construct: whole, on cells; also called hLILRA6
T8 sequence (Q6PI73 24-481): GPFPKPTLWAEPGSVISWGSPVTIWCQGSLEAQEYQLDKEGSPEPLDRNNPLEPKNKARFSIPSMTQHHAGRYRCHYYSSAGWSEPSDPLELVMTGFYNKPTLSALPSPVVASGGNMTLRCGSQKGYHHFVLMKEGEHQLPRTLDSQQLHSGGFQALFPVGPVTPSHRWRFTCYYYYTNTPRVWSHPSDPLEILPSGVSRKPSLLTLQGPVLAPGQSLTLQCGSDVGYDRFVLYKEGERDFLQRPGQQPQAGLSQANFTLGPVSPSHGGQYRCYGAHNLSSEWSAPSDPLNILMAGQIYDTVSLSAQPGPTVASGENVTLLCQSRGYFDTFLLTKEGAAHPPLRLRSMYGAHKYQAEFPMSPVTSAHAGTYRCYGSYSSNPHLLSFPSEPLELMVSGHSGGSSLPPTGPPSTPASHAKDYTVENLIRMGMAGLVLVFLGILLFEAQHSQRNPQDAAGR
Procedure: as §1

[10] = molecular target: T9, human ILT2 (human, UniProt Q8NHL6 24-650); test: as above
T9 construct: whole, on cells; also called hILT2
T9 sequence (Q8NHL6 24-650): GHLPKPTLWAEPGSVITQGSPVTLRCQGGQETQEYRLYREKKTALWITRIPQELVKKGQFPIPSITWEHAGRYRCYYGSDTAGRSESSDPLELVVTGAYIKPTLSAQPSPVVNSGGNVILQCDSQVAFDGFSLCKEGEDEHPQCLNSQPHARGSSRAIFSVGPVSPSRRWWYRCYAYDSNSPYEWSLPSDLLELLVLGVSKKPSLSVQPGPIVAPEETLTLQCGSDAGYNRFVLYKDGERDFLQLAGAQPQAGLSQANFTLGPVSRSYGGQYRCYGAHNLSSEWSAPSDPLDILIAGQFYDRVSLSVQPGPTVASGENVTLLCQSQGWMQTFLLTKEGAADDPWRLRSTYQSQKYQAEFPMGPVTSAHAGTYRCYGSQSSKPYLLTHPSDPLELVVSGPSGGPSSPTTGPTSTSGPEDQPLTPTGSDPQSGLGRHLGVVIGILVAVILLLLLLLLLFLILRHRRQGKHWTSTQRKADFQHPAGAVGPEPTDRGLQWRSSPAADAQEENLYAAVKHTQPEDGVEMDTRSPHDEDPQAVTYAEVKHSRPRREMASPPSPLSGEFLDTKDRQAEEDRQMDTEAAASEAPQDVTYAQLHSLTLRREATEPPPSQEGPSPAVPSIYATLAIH
Procedure: as §1

[11] = molecular target: T10, human LILRA1 (human, UniProt O75019 17-489); test: as above
T10 construct: whole, on cells; also called hLILRA1; LIRA1
Procedure: as §1

[12] = molecular target: T11, human ILT3 (human, UniProt Q8NHJ6 22-448); test: as above
T11 construct: whole, on cells; also called hILT3
Procedure: as §1

[13] = molecular target: T12, hILT4-His-Avi tag (human, UniProt Q8N423 22-459); test: SPR Biacore T200, 37 C; antibody captured on protein A/G chip, monomeric hILT4 as analyte; kinetic fit
T12 construct: also called monomeric human ILT4; extracellular region of hILT4 linked to a His-Avi tag
T12 sequence (Q8N423 other isoform, or with tags, fused parts or gaps): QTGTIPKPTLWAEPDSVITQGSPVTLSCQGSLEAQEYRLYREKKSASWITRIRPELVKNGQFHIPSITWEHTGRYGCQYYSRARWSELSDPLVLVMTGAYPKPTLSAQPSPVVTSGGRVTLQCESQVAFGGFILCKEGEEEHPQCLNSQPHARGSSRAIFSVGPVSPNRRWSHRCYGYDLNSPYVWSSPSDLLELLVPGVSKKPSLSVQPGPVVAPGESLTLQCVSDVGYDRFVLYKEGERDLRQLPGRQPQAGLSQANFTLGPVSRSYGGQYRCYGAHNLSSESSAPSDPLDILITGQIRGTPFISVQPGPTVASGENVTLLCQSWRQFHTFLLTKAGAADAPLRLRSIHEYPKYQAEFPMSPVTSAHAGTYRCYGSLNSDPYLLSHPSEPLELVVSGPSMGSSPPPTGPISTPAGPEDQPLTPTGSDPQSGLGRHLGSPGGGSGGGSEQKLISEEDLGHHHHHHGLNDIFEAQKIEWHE
Procedure: (§2) The binding kinetics of the parent and germline reversion mutant anti-hILT4 antibodies (in the context of IgG1.3) were measured via Surface Plasmon Resonance (SPR) using a Biacore® T200 instrument. The assay temperature was 37° C. and the running buffer was PBS pH 7.4 supplemented with 0.05% Tween-20. Allanti-hILT4 antibodies were captured on a CM4 chip with pre-immobilized protein A/G (Pierce Thermo Scientific catalog number 21186). […] Monomeric human ILT4 was injected as analyte. […] The hILT4 used in this experiment, comprising the extracellular region of hILT4 linked to a His-Avi tag, consists of the following amino acid sequence: […]

[14] = molecular target: T12, hILT4-His-Avi tag; test: SPR Biacore T200, 37 C; antibody captured on protein A/G chip, monomeric hILT4 as analyte; steady state fit
Procedure: as §2

[15] = molecular target: T12, hILT4-His-Avi tag; test: SPR Biacore T200, 37 C; antibody captured on protein A/G chip, monomeric hILT4 as analyte
Procedure: as §2

[16] = molecular target: T2, human ILT4 (hILT4) expressed on cells; test: flow cytometry on hILT4-transfected CHO cells, PE anti-human IgG secondary, GMFI (PE); EC50 from the table below the graph; the table has no unit, the concentration axis is in ug/mL
[17] = molecular target: T6, human LILRA3; test: antibody titration flow cytometry binding assay on transfected cells, nonlinear regression
[18] = molecular target: T13, human LILRA5 (human, UniProt A6NI73 42-299); test: flow cytometry, 293T transfectants, antibody 20 µg/ml; stacked histograms, control: parental cells
T13 construct: whole, on cells; also called hLILRA5
T13 sequence (A6NI73 42-299): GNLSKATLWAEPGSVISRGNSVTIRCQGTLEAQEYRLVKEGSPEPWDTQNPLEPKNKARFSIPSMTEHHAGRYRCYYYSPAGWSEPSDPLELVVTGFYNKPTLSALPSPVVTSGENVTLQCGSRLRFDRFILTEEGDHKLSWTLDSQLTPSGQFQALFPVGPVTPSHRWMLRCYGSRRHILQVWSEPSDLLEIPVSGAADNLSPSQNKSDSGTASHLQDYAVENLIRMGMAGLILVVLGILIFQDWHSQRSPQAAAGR
Procedure: as §1

[19] = molecular target: T2, human ILT4 (hILT4) expressed on cells; test: flow cytometry on human monocytes of a healthy donor, directly labelled antibody, GMFI; EC50 from the table below the graph; the table has no unit, the concentration axis is in ug/mL
Description: In FIG. 18B, monocytes selected from a normal healthy donor's peripheral blood were stained with individual anti-ILT4 antibodies conjugated to […].

[20] = molecular target: T12, hILT4-His-Avi tag; test: SPR Biacore T200, 37 C; antibody captured by anti-human Fc on CM4 chip, hILT4-His-Avi as analyte; 1:1 Langmuir fit
Procedure: The running buffer was 10 mM HEPES pH 7.4 supplemented with 0.05% Tween-20 and 1 g/L BSA. All anti-ILT4 antibodies were captured on a CM4 chip with pre-immobilized anti-human Fc capture antibody from Southern Biotech (catalog number 2081-01). […] All data were double-referenced and fitted to a 1:1 Langmuir model with mass transport using Biacore T200 Evaluation Software version 3.1.

Binder	EC50 [3] [µg/mL]	binding result [4]	binding result [5]	binding result [6]	binding result [8]	binding result [9]	binding result [10]	binding result [12]	Kd [13] [nM]	app. act. [13] [%]	koff [13] [s⁻¹]	kon [13] [M⁻¹ s⁻¹]	Kd [14] [nM]	app. act. [14] [%]	fold loss in overall affinity relative to parent 10F10 [15] [fold]	also measured
B1	0.046	no binding (tested: 20 µg/ml)	no binding (tested: 20 µg/ml)	no binding (tested: 20 µg/ml)	no binding (tested: 20 µg/ml)	no binding (tested: 20 µg/ml)	no binding (tested: 20 µg/ml)	no binding (tested: 20 µg/ml)								IC50 [1]: 0.918 µg/mL; IC50 [2]: 2.88 µg/mL; binding result [7]: no binding (tested: 20 µg/ml); binding result [11]: no binding (tested: 20 µg/ml)
B2									46	94	~0.07	1.5e+06	56	88	~3	
B3									47	123	~0.08	1.7e+06	52	115	~3	
B4	0.085	no binding (tested: 20 µg/ml)	no binding (tested: 20 µg/ml)	no binding (tested: 20 µg/ml)	no binding (tested: 20 µg/ml)	no binding (tested: 20 µg/ml)	no binding (tested: 20 µg/ml)	no binding (tested: 20 µg/ml)	0.17	98	0.00019	1.1e+06				EC50 [16]: 0.0627 µg/mL; EC50 [17]: 52.9 µg/mL; binding result [18]: no binding (tested: 20 µg/ml); EC50 [19]: 0.395 µg/mL; Kd [20]: 0.036 nM; app. act. [20]: 100%; koff [20]: 1.7e-05 s⁻¹; kon [20]: 490000 M⁻¹ s⁻¹
